Among the data in PMC8067709, “Crystal Structure of the Epo1-Bem3 Complex for Bud Growth” (International Journal of Molecular Sciences, 2021) are molar mass values, retold here.

B1: Bem3^CC1 (1-99) with 6xHis tag, isolated protein [Saccharomyces cerevisiae] / itself (parent)
chain: MTDNLTTTHGGSTTLELLAQYNDHRSKKDKSIEHIEKGTCSGKERNPSYDEIFTENIKLKLQVQEYETEIESLEKVIDMLQKNREASLEVVLEQVQNDS

The experiment covers variants of B1. The experiment can be described thus: SEC-MALS (MALS coupled with gel filtration). The following applies: read off a plot. (In general: Size exclusion chromatography separates by hydrodynamic size, large species first.)
chain 1 Y66A: the molar mass is 19 kDa.

Take chain 1 N56A Y66A E67A: the molar mass turned out to be 9.5 kDa. Take chain 1 N56A: the molar mass amounted to 17 kDa. On to chain 1 E67A, for which the molar mass is 20 kDa. Regarding chain 1 N56A E67A, the molar mass turned out to be 18 kDa. For chain 1 N56A Y66A, the molar mass stood at 10 kDa.
